Biological target: molecular probe of the formula (11) (SEQ ID NO. 11), exendin-4(1-39)-Lys40 with the Lys40 side chain labeled …
Assay: ex vivo autoradiography of pancreas sections of MIP-GFP mice after i.v. injection; radioactivity co-localised with the GFP signal of beta-cells

B1: GLP-1 receptors of the pancreatic beta-cells (MIP-GFP mice) (receptor)
chain: GPRPQGTTVSLSETVQKWREYRRQCQRFLTEAPLLATGLFCNRTFDDYACWPDGPPGSFVNVSCPWYLPWASSVLQGHVYRFCTAEGLWLHKDNSSLPWRDLSECEESKRGERNFPEEQLLSLYIIYTVGYALSFSALVIASAILVGFRHLHCTRNYIHLNLFASFILRALSVFIKDAALKWMYSTAAQQHQWDGLLSYQDSLGCRLVFLLMQYCVAANYYWLLVEGVYLYTLLAFSVFSEQRIFKLYLSIGWGVPLLFVIPWGIVKYLYEDEGCWTRNSNMNYWLIIRLPILFAIGVNFLIFIRVICIVVSKLKANLMCKTDIKCRLAKSTLTLIPLLGTHEVIFAFVMDEHARGTLRFIKLFTELSFTSFQGLMVAILYCFVNNEVQMEFRKCWERWRLEHLNIQRDCSMKPLKCPTSSVSSGATVGSSVYAATCQSSYS
notes: whole, on cells; Endogenous receptor in mouse pancreas; also called glucagon-like peptide-1 receptor
binding result: binds

— patent US20110081663A1 (KYOTO UNIVERSITY, published 2011)
